Data from US20260125446A1 (Eli Lilly, published 2026).
Ends that are not written are not given here.

T1: human RXFP1 receptor (human, UniProt Q9HBX9 1-757)
T1 sequence: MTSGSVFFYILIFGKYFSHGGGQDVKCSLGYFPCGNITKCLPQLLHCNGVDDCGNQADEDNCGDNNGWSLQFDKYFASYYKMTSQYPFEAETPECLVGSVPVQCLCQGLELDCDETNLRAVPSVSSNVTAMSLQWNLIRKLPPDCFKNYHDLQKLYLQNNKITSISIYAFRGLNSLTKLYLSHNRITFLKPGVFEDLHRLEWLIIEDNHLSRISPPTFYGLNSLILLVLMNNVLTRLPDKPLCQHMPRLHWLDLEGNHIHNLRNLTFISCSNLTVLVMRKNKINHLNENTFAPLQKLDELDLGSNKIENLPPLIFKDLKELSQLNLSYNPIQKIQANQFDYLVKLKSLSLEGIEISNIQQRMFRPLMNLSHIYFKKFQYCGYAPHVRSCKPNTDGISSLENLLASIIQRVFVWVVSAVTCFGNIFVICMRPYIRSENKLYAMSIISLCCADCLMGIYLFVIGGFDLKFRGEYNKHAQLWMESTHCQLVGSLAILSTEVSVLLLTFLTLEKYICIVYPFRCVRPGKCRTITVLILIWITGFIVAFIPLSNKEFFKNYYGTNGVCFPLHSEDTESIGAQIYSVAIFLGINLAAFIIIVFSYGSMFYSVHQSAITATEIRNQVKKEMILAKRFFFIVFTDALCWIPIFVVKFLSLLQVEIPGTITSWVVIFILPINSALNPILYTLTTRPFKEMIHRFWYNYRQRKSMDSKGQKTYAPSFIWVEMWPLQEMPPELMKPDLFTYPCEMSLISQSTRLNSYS


Tests used:
[1] = molecular target: T2, rabbit serum albumin (rabbit, UniProt P49065 25-608); experiment: SPR (Biacore 8K), albumin immobilized on CM5 chip, 25 C
T2 construct: Bought protein, immobilized on a CM5 chip by amine coupling; also called Rabbit SA
Experimental: (§1) The immobilization of the serum albumin to a Series S Sensor Chip CM5 surface is performed according to the manufacturer's instructions (Amine Coupling Kit BR-1000-50). Briefly, carboxyl groups on the sensor chip surfaces (flow cell 1 and 2) are activated by injecting 70 μL of a mixture containing 75 mg/mL EDC and 11.5 mg/mL NHS at 10 μL/min. Human, cynomolgus monkey, mouse, rat, pig, dog, cow and rabbit serum albumin are diluted in 10 mM sodium acetate pH 4.0 (BR-1003-49) at […] and then injected over the activated chip surfaces (flow cell 2, channel 1 to 8) at 10 μL/min for 180 sec (human, mouse, rat, pig and cow serum albumin are obtained from Sigma Aldrich (St. Louis, MO); cynomolgus monkey serum albumin is obtained from Hölzel Diagnostika (Cologne, Germany); dog serum albumin is obtained from Molecular Innovations (Novi, MI); and rabbit serum albumin is obtained from Fitzgerald Industries Intl. (Acton, MA). The various serum albumins are covalently immobilized through free amines onto a carboxymethyl dextran-coated sensor chip CM5 targeting a surface density of about 100 (62-145) RU. Excess reactive groups on the surfaces (flow cell 1 and 2) are deactivated by injecting 70 μL of 1 M ETA HCl—NaOH pH 8.5.
(§2) 150 μl of sample is individually injecting sequentially across the immobilized serum albumins on the chip's surface and dissociating for 600 sec at 50 μL/min flow rate at 25° C. The surface is regenerated by injecting 10 mM glycine-HCl pH 1.5 (BR-1003-54) at 50 μL/min for 100 sec. The resulting sensorgrams are analyzed using Biacore 8K Insight Evaluation Software (version 2.0.15.12933) 1:1 binding kinetics model fitting to calculate the binding kinetic parameter association rate (ka), dissociation rate (kd), and equilibrium dissociation constant (KD).

[2] = molecular target: T3, pig serum albumin (pig, UniProt P08835 25-607); experiment: SPR (Biacore 8K), albumin immobilized on CM5 chip, 25 C, 1:1 kinetic fit
T3 construct: Bought protein, immobilized on a CM5 chip by amine coupling; also called Pig SA
Experimental: as §1, §2

[3] = molecular target: T4, cow serum albumin (cow, UniProt P02769 25-607); experiment: as above
T4 construct: Bought protein, immobilized on a CM5 chip by amine coupling; also called Cow SA
Experimental: as §1, §2

[4] = molecular target: T5, dog serum albumin (dog, UniProt P49822 25-608); experiment: as above
T5 construct: Bought protein, immobilized on a CM5 chip by amine coupling; also called Dog SA
Experimental: as §1, §2

[5] = molecular target: T6, rat serum albumin (rat, UniProt P02770 25-608); experiment: as above
T6 construct: Bought protein, immobilized on a CM5 chip by amine coupling; also called Rat SA
Experimental: as §1, §2

[6] = molecular target: T7, cynomolgus monkey serum albumin (cynomolgus monkey, UniProt A2V9Z4 25-608); experiment: as above
T7 construct: Bought protein, immobilized on a CM5 chip by amine coupling; also called Cyno SA
Experimental: as §1, §2

[7] = molecular target: T8, mouse serum albumin (mouse, UniProt P07724 25-608); experiment: as above
T8 construct: Bought protein, immobilized on a CM5 chip by amine coupling; also called Mouse SA
Experimental: as §1, §2

[8] = molecular target: T9, human serum albumin (human, UniProt P02768 25-609); experiment: as above
T9 construct: Bought protein, immobilized on a CM5 chip by amine coupling; also called Human SA
Experimental: as §1, §2

[9] = molecular target: human RXFP2 receptor (human, UniProt Q8WXD0 1-754); experiment: cell-based or functional assay
[10] = molecular target: T1, human RXFP1 receptor; experiment: cell-based or functional assay
[11] = molecular target: T4, cow serum albumin; experiment: SPR (Biacore 8K), albumin immobilized on CM5 chip, 25 C, steady state
Experimental: as §1
150 μl of sample is individually injecting sequentially across the immobilized serum albumins on the chip's surface and dissociating for 600 sec at 50 μL/min flow rate at 25° C. The surface is regenerated by injecting 10 mM glycine-HCl pH 1.5 (BR-1003-54) at 50 μL/min for 100 sec. The resulting sensorgrams are analyzed using Biacore 8K Insight Evaluation Software ([…]).

| Kd [2] [nM] | koff [2] [s⁻¹] | kon [2] [M⁻¹ s⁻¹] | Kd [3] [nM] | Kd [4] [nM] | koff [4] [s⁻¹] | kon [4] [M⁻¹ s⁻¹] | Kd [5] [nM] | koff [5] [s⁻¹] | kon [5] [M⁻¹ s⁻¹] | Kd [6] [nM] | koff [6] [s⁻¹] | kon [6] [M⁻¹ s⁻¹] | Kd [7] [nM] | koff [7] [s⁻¹] | kon [7] [M⁻¹ s⁻¹] | Kd [8] [nM] | koff [8] [s⁻¹] | kon [8] [M⁻¹ s⁻¹] | Binder | binding result [1] | other results |
| --- | --- | --- | --- | --- | --- | --- | --- | --- | --- | --- | --- | --- | --- | --- | --- | --- | --- | --- | --- | --- | --- |
| 7.1 | 0.0055 | 780000 | 37 | 1.2 | 0.0015 | 1.3e+06 | 2.1 | 0.0026 | 1.2e+06 | 0.5 | 0.00053 | 1.1e+06 | 3.3 | 0.0042 | 1.3e+06 | 0.11 | 0.00011 | 980000 | RLN Analog 1 (other) EVQLLESGGGLVQPGGSLRLSCAASGRYIDETAVAWFRQAPGKEREFVAGIGGGVDITYYADSVKGRFTISRDNSKNTLYLQMNSLRPEDTAVYYCAARPGRPLITSKVADLYPYWGQGTLVTVSSGGGGQGGGGQGGGGQGGGGQGGGGQQLYSALANKCCHVGCTKRSLARFCGGGSGGSGGGSWMEEVIKLCGRELVRAQIAICGMSTWS | no binding (tested: 1000 nM (highest concentration tested)) | koff [3]: 0.05 s⁻¹; kon [3]: 1.4e+06 M⁻¹ s⁻¹ |
| – | – | – | – | – | – | – | – | – | – | – | – | – | – | – | – | – | – | – | native, human RLN2 (ligand, disulfide (positions not given here); not fully specified (bridges); ends not checked; also: two interchain and one intra-A-chain disulfide, pairing not given here) chain 1: QLYSALANKCCHVGCTKRSLARFC chain 2: DSWMEEVIKLCGRELVRAQIAICGMSTWS | – | hRXFP2 EC50 nM GeoMean (cAMP CRE luciferase reporter assay, CHO cells expressing human RXFP2) [9]: 1.7 nM; hRXFP1 EC50 nM GeoMean (cAMP CRE luciferase reporter assay, CHO cells expressing human RXFP1) [10]: 0.15 nM |
| 8 | 0.0056 | 690000 | 50 | 1.4 | 0.0015 | 1e+06 | 3 | 0.0029 | 980000 | 0.45 | 0.00052 | 1.2e+06 | 3.8 | 0.0042 | 1.1e+06 | 0.1 | 9.5e-05 | 920000 | RLN Analog 2 (other, Single-chain fusion: VHH - (PGPA)8 L1 - RLN2 A chain - L2 - RLN2 B chain (desB1)) EVQLLESGGGLVQPGGSLRLSCAASGRYIDETAVAWFRQAPGKEREFVAGIGGGVDITYYADSVKGRFTISRDNSKNTLYLQMNSLRPEDTAVYYCAARPGRPLITSKVADLYPYWGQGTLVTVSSPGPAPGPAPGPAPGPAPGPAPGPAPGPAPGPAQLYSALANKCCHVGCTKRSLARFCGGGSGGSGGGSWMEEVIKLCGRELVRAQIAICGMSTWS | no binding (tested: 1000 nM (highest concentration tested)) | koff [3]: 0.049 s⁻¹; kon [3]: 980000 M⁻¹ s⁻¹ |
| 23 | 0.013 | 580000 | – | 4.7 | 0.0034 | 710000 | 10 | 0.0072 | 700000 | 1.8 | 0.0015 | 820000 | 14 | 0.0083 | 590000 | 0.45 | 0.00026 | 580000 | RLN Analog 5 (other, Single-chain fusion: RLN2 B chain (desB1) - L2 - RLN2 A chain - (G4Q)5 L1 - VHH (C-terminal)) SWMEEVIKLCGRELVRAQIAICGMSTWSGGGSGGSGGGQLYSALANKCCHVGCTKRSLARFCGGGGQGGGGQGGGGQGGGGQGGGGQEVQLLESGGGLVQPGGSLRLSCAASGRYIDETAVAWFRQAPGKEREFVAGIGGGVDITYYADSVKGRFTISRDNSKNTLYLQMNSLRPEDTAVYYCAARPGRPLITSKVADLYPYWGQGTLVTVSSPP | no binding (tested: 1000 nM (highest concentration tested)) | hRXFP2 EC50 nM GeoMean (cAMP CRE luciferase reporter assay, CHO cells expressing human RXFP2) [9]: 98 nM; hRXFP1 EC50 nM GeoMean (cAMP CRE luciferase reporter assay, CHO cells expressing human RXFP1) [10]: 8.1 nM; Kd [11]: 120 nM |
